Laboratory results published in paper PMC6555819, “Comprehensive study of nuclear receptor DNA binding provides a revised framework for understanding receptor specificity”.
Positions count from the first letter of the chain named.

B1: NRC3_wobSeed27_DR1_G18A_o1 (dsDNA)
DNA 1: GCACTCGGAGGACAAAGATCAGAGCTACGCCAGTGAGCGATTGACAGCGTAGAATGAAGG
DNA 2: CCTTCATTCTACGCTGTCAATCGCTCACTGGCGTAGCTCTGATCTTTGTCCTCCGAGTGC
B2: NRC3_wobSeed106_DR4_T4G_o1 (dsDNA)
DNA 1: GCCGCGAAAGGTCGGTTGAGGTGAGTATACGGATAAGCGATTGACAGCGTAGAATGAAGG
DNA 2: CCTTCATTCTACGCTGTCAATCGCTTATCCGTATACTCACCTCAACCGACCTTTCGCGGC
B3: NRC3_wobSeed108_DR4_T23C_o1 (dsDNA)
DNA 1: GCGCGACTGGGGCAAAGCAGGTCACCATAAGGTTGGGCGATTGACAGCGTAGAATGAAGG
DNA 2: CCTTCATTCTACGCTGTCAATCGCCCAACCTTATGGTGACCTGCTTTGCCCCAGTCGCGC
B4: NRC3_wobSeed73_DR3_A16T_o1 (dsDNA)
DNA 1: GCCAAACTAGGTCACTGAGGTCAAAGTCCGTGCGTAGCGATTGACAGCGTAGAATGAAGG
DNA 2: CCTTCATTCTACGCTGTCAATCGCTACGCACGGACTTTGACCTCAGTGACCTAGTTTGGC
B5: NRC3_wobSeed130_DR5_G24C_o1 (dsDNA)
DNA 1: GCCTCGAAAGGTCGTGCTCAGGTCAGTATACCAAACGCGATTGACAGCGTAGAATGAAGG
DNA 2: CCTTCATTCTACGCTGTCAATCGCGTTTGGTATACTGACCTGAGCACGACCTTTCGAGGC
B6: NRC3_wobSeed85_DR3_A16C_o1 (dsDNA)
DNA 1: GCCGTCCAAGGTCAGCGAGGTCAGTGAATGCCGAGTGCGATTGACAGCGTAGAATGAAGG
DNA 2: CCTTCATTCTACGCTGTCAATCGCACTCGGCATTCACTGACCTCGCTGACCTTGGACGGC
B7: NRC3_wobSeed114_DR4_G17C_o1 (dsDNA)
DNA 1: GCAATACAGGGTCATCCTAGGCCAGAGTACGCACAGGCGATTGACAGCGTAGAATGAAGG
DNA 2: CCTTCATTCTACGCTGTCAATCGCCTGTGCGTACTCTGGCCTAGGATGACCCTGTATTGC
B8: NRC3_wobSeed114_DR4_T18G_o1 (dsDNA)
DNA 1: B7 DNA 1 with C17G, T18G
DNA 2: B7 DNA 2 with A43C, G44C
B9: NRC3_wobSeed49_DR2_A15T_o1 (dsDNA)
DNA 1: GCCAAACTAGGTCATGAGGTCAAAGTCCGCTTCCCGGCGATTGACAGCGTAGAATGAAGG
DNA 2: CCTTCATTCTACGCTGTCAATCGCCGGGAAGCGGACTTTGACCTCATGACCTAGTTTGGC
B10: NRC3_wobSeed121_DR5_T8C_o1 (dsDNA)
DNA 1: GCCAAACCAGGTCACCGGAAGGTCAAAGTCCGCATGGCGATTGACAGCGTAGAATGAAGG
DNA 2: CCTTCATTCTACGCTGTCAATCGCCATGCGGACTTTGACCTTCCGGTGACCTGGTTTGGC
B11: NRC3_wobSeed52_DR2_C21G_o1 (dsDNA)
DNA 1: GCCCTACTGGGCCATCAGGTGATTGATATCAACGTTGCGATTGACAGCGTAGAATGAAGG
DNA 2: CCTTCATTCTACGCTGTCAATCGCAACGTTGATATCAATCACCTGATGGCCCAGTAGGGC
B12: NRC3_wobSeed120_DR4_A17T_o1 (dsDNA)
DNA 1: GCCCGAGTAGGTTACGTGGGGGCATTCAGTGCGAATGCGATTGACAGCGTAGAATGAAGG
DNA 2: CCTTCATTCTACGCTGTCAATCGCATTCGCACTGAATGCCCCCACGTAACCTACTCGGGC
B13: NRC3_wobSeed119_DR4_T21G_o1 (dsDNA)
DNA 1: GCGGAACGAGGGCATTCGAGGTGATAGCATGGCGATGCGATTGACAGCGTAGAATGAAGG
DNA 2: CCTTCATTCTACGCTGTCAATCGCATCGCCATGCTATCACCTCGAATGCCCTCGTTCCGC
B14: NRC3_wobSeed119_DR4_A9T_o1 (dsDNA)
DNA 1: B13 DNA 1 with A9T, G21T
DNA 2: B13 DNA 2 with C40A, T52A
B15: NRC3_wobSeed112_DR4_C22T_o1 (dsDNA)
DNA 1: GCTAGCCTAGGTCAGATCGGGTCAGTATACGCTATAGCGATTGACAGCGTAGAATGAAGG
DNA 2: CCTTCATTCTACGCTGTCAATCGCTATAGCGTATACTGACCCGATCTGACCTAGGCTAGC
B16: NRC3_wobSeed112_DR4_T8G_o1 (dsDNA)
DNA 1: B15 DNA 1 with T8G, T22C
DNA 2: B15 DNA 2 with A39G, A53C
B17: NRC3_wobSeed2_DR0_G16C_o1 (dsDNA)
DNA 1: GCCCTAGTTGGTCAACGTCACACACGCTATAGGTACGCGATTGACAGCGTAGAATGAAGG
DNA 2: CCTTCATTCTACGCTGTCAATCGCGTACCTATAGCGTGTGTGACGTTGACCAACTAGGGC
B18: NRC3_wobSeed110_DR4_T19A_o1 (dsDNA)
DNA 1: GCTCTGCTAGGTCAACGAAGGTCAGCTAATCTGCTAGCGATTGACAGCGTAGAATGAAGG
DNA 2: CCTTCATTCTACGCTGTCAATCGCTAGCAGATTAGCTGACCTTCGTTGACCTAGCAGAGC
B19: NRC3_wobSeed37_DR1_A25G_o1 (dsDNA)
DNA 1: GCCGTCCAAGGTCAAAGGTCAGTGGAGAGATGACGGGCGATTGACAGCGTAGAATGAAGG
DNA 2: CCTTCATTCTACGCTGTCAATCGCCCGTCATCTCTCCACTGACCTTTGACCTTGGACGGC
B20: NRC3_wobSeed102_DR4_C12T_o1 (dsDNA)
DNA 1: GCCCTAGCAGGTCAATCTGGGTCACTCAAGGCTTGAGCGATTGACAGCGTAGAATGAAGG
DNA 2: CCTTCATTCTACGCTGTCAATCGCTCAAGCCTTGAGTGACCCAGATTGACCTGCTAGGGC
B21: NRC3_wobSeed102_DR4_G21A_o1 (dsDNA)
DNA 1: B20 DNA 1 with T12C, G21A
DNA 2: B20 DNA 2 with C40T, A49G
B22: NRC3_wobSeed100_DR4_A17T_o1 (dsDNA)
DNA 1: GCCCTACTGGGCCACGTAAGGTCATTGATTCAGTGAGCGATTGACAGCGTAGAATGAAGG
DNA 2: CCTTCATTCTACGCTGTCAATCGCTCACTGAATCAATGACCTTACGTGGCCCAGTAGGGC
B23: NRC3_wobSeed118_DR4_G15C_o1 (dsDNA)
DNA 1: GCTTACCAAGGTGACCTGAGGTCGTTGATCCAACTCGCGATTGACAGCGTAGAATGAAGG
DNA 2: CCTTCATTCTACGCTGTCAATCGCGAGTTGGATCAACGACCTCAGGTCACCTTGGTAAGC
B24: NRC3_wobSeed118_DR4_A8G_o1 (dsDNA)
DNA 1: B23 DNA 1 with A8G, C15G
DNA 2: B23 DNA 2 with G46C, T53C
B25: NRC3_wobSeed17_DR0_G16A_o1 (dsDNA)
DNA 1: GCATATGTAGGTTAGAGTCATTCAGAAAGTAGGGAAGCGATTGACAGCGTAGAATGAAGG
DNA 2: CCTTCATTCTACGCTGTCAATCGCTTCCCTACTTTCTGAATGACTCTAACCTACATATGC
B26: NRC3_wobSeed136_DR5_T12C_o1 (dsDNA)
DNA 1: GCTAGCCTAGGCCATTCAGGGGCCAGTATAGAAAGCGCGATTGACAGCGTAGAATGAAGG
DNA 2: CCTTCATTCTACGCTGTCAATCGCGCTTTCTATACTGGCCCCTGAATGGCCTAGGCTAGC
B27: NRC3_wobSeed103_DR4_A13T_o1 (dsDNA)
DNA 1: GCGCATATAGGTTATACAAGGTGAAAGTCCGATTGTGCGATTGACAGCGTAGAATGAAGG
DNA 2: CCTTCATTCTACGCTGTCAATCGCACAATCGGACTTTCACCTTGTATAACCTATATGCGC
B28: NRC3_wobSeed103_DR4_A16T_o1 (dsDNA)
DNA 1: B27 DNA 1 with T13A, A16T
DNA 2: B27 DNA 2 with T45A, A48T
B29: NRC3_wobSeed72_DR2_G18C_o1 (dsDNA)
DNA 1: GCTCGAGTAGGTTACGGCGGCATTCAGGGATGAAGAGCGATTGACAGCGTAGAATGAAGG
DNA 2: CCTTCATTCTACGCTGTCAATCGCTCTTCATCCCTGAATGCCGCCGTAACCTACTCGAGC
B30: NRC3_wobSeed138_DR5_T12G_o1 (dsDNA)
DNA 1: GCGATACAGGGGCAGCTAGAGGCCAGAGTATGGAAAGCGATTGACAGCGTAGAATGAAGG
DNA 2: CCTTCATTCTACGCTGTCAATCGCTTTCCATACTCTGGCCTCTAGCTGCCCCTGTATCGC
B31: NRC3_wobSeed15_DR0_C13A_o1 (dsDNA)
DNA 1: GCCGAACTAGGTAAAGGACAGTGAATCTCCGCACGCGCGATTGACAGCGTAGAATGAAGG
DNA 2: CCTTCATTCTACGCTGTCAATCGCGCGTGCGGAGATTCACTGTCCTTTACCTAGTTCGGC
B32: NRC3_wobSeed122_DR5_C24A_o1 (dsDNA)
DNA 1: GCGCTAGTTGGTCAGTAAAAGGTAACACACCGGTCGGCGATTGACAGCGTAGAATGAAGG
DNA 2: CCTTCATTCTACGCTGTCAATCGCCGACCGGTGTGTTACCTTTTACTGACCAACTAGCGC
B33: NRC3_wobSeed111_DR4_G11A_o1 (dsDNA)
DNA 1: GCCGAACTAGATCAGAACAGGACAGTGAAGGATGATGCGATTGACAGCGTAGAATGAAGG
DNA 2: CCTTCATTCTACGCTGTCAATCGCATCATCCTTCACTGTCCTGTTCTGATCTAGTTCGGC

Each binder was assayed against THRa:RXRa (Homo sapiens, UniProt P10827;P19793 full;full) (assay: no ligand; PBM; 90 nM : 90 nM RXRa; PBS pH 7.4, 2% milk, 0.02% Triton X-100, 1 mM DTT, BSA, 0.4 mg/ml salmon testes DNA). Conditions: tags: His kept;His cleaved; copies: 1;1; label: surface-attached array probe.
Sequence of THRa:RXRa (P10827 other isoform, or with tags, fused parts or gaps, chain 1 of 2): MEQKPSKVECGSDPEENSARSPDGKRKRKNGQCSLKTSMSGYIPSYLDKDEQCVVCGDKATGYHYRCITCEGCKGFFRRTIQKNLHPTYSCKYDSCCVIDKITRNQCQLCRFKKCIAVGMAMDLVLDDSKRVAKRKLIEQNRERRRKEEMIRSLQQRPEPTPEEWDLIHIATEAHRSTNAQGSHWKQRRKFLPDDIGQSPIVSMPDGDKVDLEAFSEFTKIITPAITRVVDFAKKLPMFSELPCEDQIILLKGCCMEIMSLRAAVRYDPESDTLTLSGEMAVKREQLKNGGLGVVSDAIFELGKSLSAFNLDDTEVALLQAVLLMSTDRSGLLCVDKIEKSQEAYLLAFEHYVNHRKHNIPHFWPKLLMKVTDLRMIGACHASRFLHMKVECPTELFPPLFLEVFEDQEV
Sequence of THRa:RXRa (P19793 whole entry, chain 2 of 2): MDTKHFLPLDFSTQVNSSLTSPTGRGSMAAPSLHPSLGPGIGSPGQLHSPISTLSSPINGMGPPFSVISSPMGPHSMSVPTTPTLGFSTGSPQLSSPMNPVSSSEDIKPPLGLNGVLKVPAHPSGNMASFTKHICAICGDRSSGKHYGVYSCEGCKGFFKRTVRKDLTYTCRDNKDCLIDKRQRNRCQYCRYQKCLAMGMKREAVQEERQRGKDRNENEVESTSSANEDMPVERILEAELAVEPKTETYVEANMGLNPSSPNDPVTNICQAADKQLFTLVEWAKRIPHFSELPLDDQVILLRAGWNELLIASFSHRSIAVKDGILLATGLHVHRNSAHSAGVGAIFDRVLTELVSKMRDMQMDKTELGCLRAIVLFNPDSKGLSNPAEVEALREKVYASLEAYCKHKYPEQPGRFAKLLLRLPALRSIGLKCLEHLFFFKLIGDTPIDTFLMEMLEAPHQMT

Binder | binding signal
B1 | 0.36 PBM z-score against 500 random probes
B2 | 5.31 PBM z-score against 500 random probes
B3 | 4.79 PBM z-score against 500 random probes
B4 | 5.07 PBM z-score against 500 random probes
B5 | 4.84 PBM z-score against 500 random probes
B6 | 4.81 PBM z-score against 500 random probes
B7 | 5.26 PBM z-score against 500 random probes
B8 | 5.17 PBM z-score against 500 random probes
B9 | 4.8 PBM z-score against 500 random probes
B10 | 4.95 PBM z-score against 500 random probes
B11 | 0.39 PBM z-score against 500 random probes
B12 | 4.87 PBM z-score against 500 random probes
B13 | 5.22 PBM z-score against 500 random probes
B14 | 0.25 PBM z-score against 500 random probes
B15 | 5.04 PBM z-score against 500 random probes
B16 | 4.92 PBM z-score against 500 random probes
B17 | 0.39 PBM z-score against 500 random probes

Binder | binding signal
B18 | 5.01 PBM z-score against 500 random probes
B19 | 5.12 PBM z-score against 500 random probes
B20 | 5.18 PBM z-score against 500 random probes
B21 | 0.26 PBM z-score against 500 random probes
B22 | 4.98 PBM z-score against 500 random probes
B23 | 5.05 PBM z-score against 500 random probes
B24 | 5.02 PBM z-score against 500 random probes
B25 | 0.23 PBM z-score against 500 random probes
B26 | 0.47 PBM z-score against 500 random probes
B27 | 5.07 PBM z-score against 500 random probes
B28 | 4.81 PBM z-score against 500 random probes
B29 | 0.41 PBM z-score against 500 random probes
B30 | 0.48 PBM z-score against 500 random probes
B31 | 0.15 PBM z-score against 500 random probes
B32 | 0.45 PBM z-score against 500 random probes
B33 | 0.34 PBM z-score against 500 random probes
